For experiment [1], the target named is 2-hydroxymuconate semialdehyde dehydrogenase (NahI) from Pseudomonas putida G7, His-tag removed (GH-NahI) (Pseudomonas putida G7). Nature of the experiment: dynamic light scattering.
The target is the same in experiment [2]. Nature of the experiment: small-angle X-ray scattering.
A further experiment has as its target T1, NahI (GH-NahI) (Pseudomonas putida, UniProt Q1XGK8).
T1 sequence (Q1XGK8 1-486): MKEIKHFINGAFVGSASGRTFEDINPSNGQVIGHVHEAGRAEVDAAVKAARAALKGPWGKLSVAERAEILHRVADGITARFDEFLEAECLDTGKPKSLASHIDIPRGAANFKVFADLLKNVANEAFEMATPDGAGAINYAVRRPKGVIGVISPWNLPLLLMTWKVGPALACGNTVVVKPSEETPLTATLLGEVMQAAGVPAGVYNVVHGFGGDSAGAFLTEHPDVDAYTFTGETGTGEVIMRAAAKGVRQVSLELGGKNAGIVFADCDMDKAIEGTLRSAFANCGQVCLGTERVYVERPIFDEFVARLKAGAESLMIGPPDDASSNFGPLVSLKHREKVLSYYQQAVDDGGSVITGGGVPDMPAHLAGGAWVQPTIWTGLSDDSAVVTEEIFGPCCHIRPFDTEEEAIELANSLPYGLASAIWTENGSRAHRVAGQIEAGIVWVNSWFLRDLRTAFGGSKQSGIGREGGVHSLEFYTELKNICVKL
Nature of the experiment: CD thermal denaturation at […] nm. The experiment is classed as binding. The following applies: 50 mM sodium phosphate pH 7.4, 50 mM NaCl, 0.3 mg/mL protein; two-step denaturation.

As a reminder, the stoichiometry N is the number of molecules, sites or subunits per partner or assembly.

Consider “2-hydroxymuconate semialdehyde dehydrogenase (NahI) from Pseudomonas putida G7, His-tag removed (GH-NahI) (enzyme)”, for which the stoichiometry N turned out to be 3 in experiment [1] and 4 in experiment [2].

`NC(=O)c1ccc[n+]([C@@H]2O[C@H](COP(=O)(O)OP(=O)(O)OC[C@H]3O[C@@H](n4cnc5c(N)ncnc54)[C@H](O)[C@@H]3O)[C@@H](O)[C@H]2O)c1` [NAD^+]: the “second transition temperature of the NAD+ complex (apo enzyme 73.9 °C)” value at NahI (GH-NahI) came to 76.7 °C.

The values are drawn from publication PMC4866608 (Archives of biochemistry and biophysics, 2015).
